Results taken from publication PMC6205457.

Tests used:
MCL1 = MCL1 (UniProt P97287); assay: SPR
[1] = biological target: biotinylated mouse MCL1 (amino acids 152-308) (mouse) (UniProt P97287); assay: SPR

Row | Kd (MCL1) | Kd [1] | Substance
1 | 4 nM | – | PUMA 27-aa wild-type peptide (pseudo wild-type, M144A)
2 | < 0.16 nM | – | rPUMA (redesigned PUMA peptide: A139tBu, Q140Y, A144Cha, A145G, Y152Bzt)
3 | – | 7 nM | PUMA27 I137tBu (peptide)
